Results published in paper PMC4978566.

Target: A/California/04/2009 H1 (influenza A virus A/California/04/2009) (UniProt C3W5S1)
Test: crystal structure

A/California/04/2009 H1 (from UniProt C3W5S1 18-520) (natural protein)
stoichiometry N: 2
